Measurements from the RNAGym collection of RNA variant scans (doi:10.1073/pnas.2313332121).

B1: TPR t1 (parent)
chain: GACCAAUCUGCCCUCAGAGCUCGAGAACAUCUUCGGAUGCAGAGGAGGCAGGCUUCGGUGGCGCGAUAGCGCCAACGUCCUCAACCUCCAAUGCAUCCCACCACAUGAUGAUGCCUGAAGAGCCUUGGUUUUUUG

Variants of: B1
Assay: polymerase ribozyme fitness, log enrichment relative to wild type (log ratio); higher = more active; in vitro selection for triplet polymerase activity
Summary of the method: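 Mutant libraries for each subunit of a heterodimeric triplet polymerase ribozyme were made by PCR and then transcribed. Each library underwent one round of in vitro selection in triplicate: annealing with a biotinylated primer, the partner subunit and triplets, frozen incubation at −7 °C, gel excision of extended constructs, streptavidin-bead capture and RT-PCR. Input and output libraries were Illumina-sequenced, and only genotypes with ≥10 input reads and ≥1 read per output were kept. Fitness is the logarithm, base 2, of genotype enrichment over wild-type enrichment, computed from inverse-variance-weighted replicate averages.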

Variant	polymerase ribozyme fitness (log ratio)
C56A G107A A121C	-4.32
U55C C82G A91C A105U C123G	-6.04
C56A U92G	-2.6
C56A U92A	-3.75
C56G C88U C94A G110U	-4.78
C56G C80A	-1.38
C56U C64U	-1.54
C56U C124U U133G	1.14
G58A C64U U78C C86U A111C U129C	-1.68
C56U A83G	-0.676
C56G G58U U59C	1.36
C56A C101U G110A	-1.05
G58C G77A C97U	0.13
C56U C70A C115A G122A	-3.13
C56U G77A C94U C102A	-2.87
G57C A83G U116G	-2.83
G58C C73G C80U C102A G113A	-5.77
C56G A74U C86A	-2.4
G58C C70U A103U	-6.42
U55C G69U A90G U112C A119U	0.0646
U55G U130G	-0.58

Variant	polymerase ribozyme fitness (log ratio)
C56A C115A	-0.059
C56A G63A A91C	-5.68
G57U C72G U96A	-2.83
U54G G60A U92A G107C G117A	-6.96
G57U C123U	0.41
G57U C79U A108G	-2.71
G58A C62A	-2.66
C56A C73A C94U G113A	-2.48
G57U C94G U112G	-4.47
C56A C86U	-0.995
U54G G60C U112A G117C	-5
U55C C62G G128U	-4.02
G57C G58A C114U	-3.53
C56G C62G	-3.35
G57A G77C	-2.28
U54G C85G U133A	-1.09
C56A A83G	-1.6
G57A G61A C104U	-0.114
U55G C73G C123U	0.666
G58C G69A C123A	-3.42
G57U G63A C89G	-3.98

Variant	polymerase ribozyme fitness (log ratio)
U55A G77A A111U C114U	-5.73
U55A U59C U78G C82A G110A	-2.6
U55A C62U C85A A100U C102U	-5.11
U55G C56A A83G	-1.72
C56G C62U A103U U109G	-6.92
C56G C94G	-1.87
C56U A90C G110A A111G U132A	-0.678
U54G G93A A111U	-3.35
C56G C102A	-1.59
C56U C73A A100U	-1.12
G58A U125G	-0.683
U55G A74U U81A C85G G122A	-4.4
C56U U106A	0.0907
C56U C115A U133C	1.27
U54G C82A	-0.235
C56U C73U	-0.755
C56A A118G	-0.557
G57C C62U G135U	-1.15
U55C C85A G113C	-3.66
C56U U96G C101A G113C	-3.97
U55G C73G	1

Variant	polymerase ribozyme fitness (log ratio)
G57A U87C	-1.14
G57U C62G A121G U130A	-0.352
C56G A75G U109C	-7.14
C56G U87A G120A	-0.872
C56U U92C	-0.619
G57A G63A	-2.04
C56A G113C	-1.7
C56A C114U C115U U131C	-5.83
C56U A90G U125A	-0.318
C56A U87G A108G G113C	-3.65
G57U C62U U81A	-0.351
C56U U129A	-1.15
C56U C62U C101G U133A	-3.24
C56A G93U	-2.21
C56G U87C	-0.336
U55G C82U A100U G113U	-4.11
C56G G77C U130G	-0.115
G58A C114G	-3.37
U55G U78A	-0.34
G58C C80A	-3.5
